From US20200079854A1 (Johns Hopkins, published 2020) come the findings set out here.

Experiment [1] has as its target T1, KRAS wt(7-16) peptide … with HLA-A3 and b2M on cells (human).
T1 construct: peptide-pulsed T2A3 cells in flow cytometry
Kind of experiment: flow cytometry, phage-displayed scFv on peptide-pulsed T2A3 cells (FIG. 7). (A flow cytometer gives signals particle by particle.)
Protocol: (§1) The pulsed cells were pelleted, washed once in cold stain buffer (PBS containing 0.5% BSA, 2 mM EDTA, and 0.1% sodium azide), and resuspended in 100 μL of stain buffer. Phage staining was performed on ice with 10 uL (approximately 1×10⁹) phage for 1 hour in 100 uL total volume, followed by one 4 mL wash in cold stain buffer. Cells were then stained with 1 uL of rabbit anti-M13 antibody (Pierce, Rockford, Ill.) in 100 uL total volume on ice for 1 hour and washed once with 4 mL of cold stain buffer. Cells were stained with anti-rabbit-PE (Biolegend) on ice for 1 hour in 100 uL total volume, followed by incubation with LIVE/DEAD Fixable Near-IR Dead Cell Stain (Thermo Fisher) for 10 min at room temperature per manufacturer's instructions. Cells were washed once in 4 mL of stain buffer followed by resuspension in 300 uL of stain buffer before analysis. Stained cells were analyzed using an LSRII flow cytometer (Becton Dickinson, Mansfield, Mass.).

The target of experiment [2] is T1, KRAS wt(7-16) peptide … with HLA-A3 and …. Kind of experiment: flow cytometry, phage-displayed scFv on peptide-pulsed T2A3 cells (FIG. 8).
Protocol: Cells were stained with 10 μL of precipitated phage per 100 μL of cells, washed and stained with rabbit anti-M13 antibody, then washed and stained with anti-Rabbit-PE antibody. Cells were stained with a live/dead Near-IR dye, washed, and analyzed by an LSRII flow cytometer.
as §1

B1: KRAS G12V_A3_c120 (scFv)
scFv: DIQMTQSPSSLSASVGDRVTITCRASQDVNTAVAWYQQKPGKAPKLLIYSASFLYSGVPSRFSGSRSGTDFTLTISSLQPEDFATYYCQQKSEYSPWTFGQGTKVEIKRTGGGSGGGGSGGGASEVQLVESGGGLVQPGGSLRLSCAASGFNIYRYGIHWVRQAPGKGLEWVAVLYPYGYSTSYADSVKGRFTISADTSKNTAYLQMNSLRAEDTAVYYCSRSYAYGYFAYWGQGTLVTVSS
As to B1, in experiment [1], the binding result was “no binding”.

B2: KRAS_G12D_A3_D26 (scFv)
scFv: DIQMTQSPSSLSASVGDRVTITCRASQDVNTAVAWYQQKPGKAPKLLIYSASFLYSGVPSRFSGSRSGTDFTLTISSLQPEDFATYYCQQYAYSPLTFGQGTKVEIKRTGGGSGGGGSGGGASEVQLVESGGGLVQPGGSLRLSCAASGFNVSSYGMHWVRQAPGKGLEWVAFIAPRRDYTSYADSVKGRFTISADTSKNTAYLQMNSLRAEDTAVYYCSRKSSYYFDYWGQGTLVTVSS
Regarding B2, the binding result in experiment [2] is recorded as “no binding”.

B3: KRAS_G12D_A3_c111 (scFv)
scFv: DIQMTQSPSSLSASVGDRVTITCRASQDVNTAVAWYQQKPGKAPKLLIYSASFLYSGVPSRFSGSRSGTDFTLTISSLQPEDFATYYCQQYMYSPVTFGQGTKVEIKRTGGGSGGGGSGGGASEVQLVESGGGLVQPGGSLRLSCAASGFNVSAYWMHWVRQAPGKGLEWVAQIYGGSGYTMYADSVKGRFTISADTSKNTAYLQMNSLRAEDTAVYYCSRTHSYWSAFDYWGQGTLVTVSS
In the case of B3, in experiment [2], the binding result is reported as “no binding”.

B4: KRAS G12V_A3_c122 (scFv)
scFv: DIQMTQSPSSLSASVGDRVTITCRASQDVNTAVAWYQQKPGKAPKLLIYSASFLYSGVPSRFSGSRSGTDFTLTISSLQPEDFATYYCQQGAYYRPFTFGQGTKVEIKRTGGGSGGGGSGGGASEVQLVESGGGLVQPGGSLRLSCAASGFNISYSYMHWVRQAPGKGLEWVATLLPYDGNTYYADSVKGRFTISADTSKNTAYLQMNSLRAEDTAVYYCSRAAYSSMDVWGQGTLVTVSS
Take B4: the binding result in experiment [1] is listed as “no binding”.

B5: KRAS G12V_A3_c121 (scFv)
scFv: DIQMTQSPSSLSASVGDRVTITCRASQDVNTAVAWYQQKPGKAPKLLIYSASFLYSGVPSRFSGSRSGTDFTLTISSLQPEDFATYYCQQSGYIPFTFGQGTKVEIKRTGGGSGGGGSGGGASEVQLVESGGGLVQPGGSLRLSCAASGFNIYGTMMHWVRQAPGKGLEWVAQFKPDSYNTYYADSVKGRFTISADTSKNTAYLQMNSLRAEDTAVYYCSRGEVYHYYAFDYWGQGTLVTVSS
With B5, in experiment [1], the binding result was “no binding”.

B6: KRAS_G12D_A3_D12 (scFv)
scFv: DIQMTQSPSSLSASVGDRVTITCRASQDVNTAVAWYQQKPGKAPKLLIYSASFLYSGVPSRFSGSRSGTDFTLTISSLQPEDFATYYCQQSSSSPITFGQGTKVEIKRTGGGSGGGGSGGGASEVQLVESGGGLVQPGGSLRLSCAASGFNISGYGMHWVRQAPGKGLEWVAYLYGGSDYTNYADSVKGRFTISADTSKNTAYLQMNSLRAEDTAVYYCSRTVRYAFDYWGQGTLVTVSS
In the case of B6, in experiment [2], the binding result is listed as “no binding”.

B7: KRAS_G12D_A3_D15 (scFv)
scFv: DIQMTQSPSSLSASVGDRVTITCRASQDVNTAVAWYQQKPGKAPKLLIYSASFLYSGVPSRFSGSRSGTDFTLTISSLQPEDFATYYCQQSSASPLTFGQGTKVEIKRTGGGSGGGGSGGGASEVQLVESGGGLVQPGGSLRLSCAASGFNVSSVGMHWVRQAPGKGLEWVAYIYGTSDYTYYADSVKGRFTISADTSKNTAYLQMNSLRAEDTAVYYCSRSSRYSMDYWGQGTLVTVSS
Consider B7, for which the binding result in experiment [2] is listed as “no binding”.
